Laboratory results: the RNAGym collection of RNA variant scans (doi:10.7554/elife.90254)

B1: LINE1-full (parent)
chain: UACGUAGGUGGUUUUCCCCUGAUAGUGCUAAGGGGGCCUGGAAGUUUGGACUGGGCAGAGCUCAACACAGCGUGGCAAAGUGGCUGUGGCUAGACUGCCUCUCUGGAUUCCUCGUCACUCAGCAGGGCAUCUCUGAGAGAAAUGCC

Variants of: B1
Assay: self-cleavage, relative activity (ratio to wild type); higher = more cleavage; in vitro, sequencing; the parent is a self-cleaving ribozyme
UACGUAGGUGGUUUUCCCCUGAUAGUGCUAAGGGGGCCUGGAAGUUUGGACAGGGCAGAGCUCAACACAGCGUGGCAAAGUGGCUGUGGCUAGACUGCCUCUCUGGAUUCCUCGUCACUCAGCAGGACAUCUCUGAGAGAAAUGCC gave a self-cleavage of 1.63.
UACGUAGGUGGUUUUCCCCUGAUAGUGCUAAGGGGGCCUGGAAGUUUGGACUGGGCAGAGCUCAACACAGUGUGGCAAUGUGGCUGUGGCUAGACUGCCUCUCUGGAUUCCUCGUCACUCAGCAGGGCAUCUCUGAGAGAAAUGCC showed a self-cleavage of 0.74.
For UACGUAGGUGGUUUUCCCCUGAUAGUGCUAAGGGGGCCUGGAAGUUUGGACUGGGCAGAGCUCAACACAGCGUGGCAAAGUGACUGUGGCUAGACUGCCUCUCUGGAUUCCUCGUCACUCAGCAGGACAUCUCUGAGAGAAAUGCC, the self-cleavage was 0.52.
UACAUAGGUGGUUUUCCCCUGAUAGUGCUAAGGGGGCCUGGAAGUUUGGACUGGGCAGAGCUCAACACAGCGUGGCAAAGUGGCUGUGGCUAGACUGCCUCUCUGGAUUCCUCGUCACUCAGCAGGGCAUCUCUGAGAAAAAUGCC showed a self-cleavage of 1.21.
UACGUAGGUGGUUUUCCCCUGAUAGGGCUAAGGGGGCCUGGAAGUUUGGACUGGGCAGAGCUCAACACGGCGUGGCAAAGUGGCUGUGGCUAGACUGCCUCUCUGGAUUCCUCGUCACUCAGCAGGGCAUCUCUGAGAGAAAUGCC showed a self-cleavage of 0.17.
Variant UACGUAGGUGGUUUUCCCCUGAUAGUGCUAAGGGGGCCUGGAAGUUUGGACUGGGCAGAGCUCAACACAGCGUGGCAAAGUGGCUGUGGCUAGACUGCCUCUCUGGAUCCCUCGGCACUCAGCAGGGCAUCUCUGAGAGAAAUGCC has a self-cleavage of 1.04.
With UACGUAGGUGGUUUUCCCCUGAUAGUGCUAAGGGGGCCUGGAAGUUUGGACUGGGCAGAGCUCAACACAGCGUGGCAAAGUGGCUGUGGCUAGACUGCCGCUCUGGAUUCCUCGUCACUCAGCAGGGCACCUCUGAGAGAAAUGCC the self-cleavage was 2.21.
Work on UACGUAGGUGGUUUUCCCCUGAUAGUGCUAAGUGGGCCUGGAAGUUUGGUCUGGGCAGAGCUCAACACAGCGUGGCAAAGUGGCUGUGGCUAGACUGCCUCUCUGGAUUCCUCGUCACUCAGCAGGGCAUCUCUGAGAGAAAUGCC yielded a self-cleavage of 1.14.
Work on UACGUAGGUAGUUUUCCCCUGAUAGUGCUAAGGGGGCCUGGAAGUUUGGACUGGGCAGAGCUCAACACAGCGAGGCAAAGUGGCUGUGGCUAGACUGCCUCUCUGGAUUCCUCGUCACUCAGCAGGGCAUCUCUGAGAGAAAUGCC yielded a self-cleavage of 1.55.
Variant UACGUAGGUGGUUUUCCCCUGAUAGUGCUAAGGGGGCCUGGAAGUUUGGACUGGGCAGAGCUCAACACGGCGUGGCGAAGUGGCUGUGGCUAGACUGCCUCUCUGGAUUCCUCGUCACUCAGCAGGGCAUCUCUGAGAGAAAUGCC has a self-cleavage of 0.6.
In the case of UACGUAGGUGGUUUUCCCCUGAUAGUGCUAAGGGGGCCUGGAAGUUUGGACUGGGCAGAGCUCAGCACAGCGAGGCAAAGUGGCUGUGGCUAGACUGCCUCUCUGGAUUCCUCGUCACUCAGCAGGGCAUCUCUGAGAGAAAUGCC, the self-cleavage is reported as 0.04.
Variant UACGUAGGUGGUUUACCCCUGAUAGUGCUAAGGGGGCCUGGAAAUUUGGACUGGGCAGAGCUCAACACAGCGUGGCAAAGUGGCUGUGGCUAGACUGCCUCUCUGGAUUCCUCGUCACUCAGCAGGGCAUCUCUGAGAGAAAUGCC has a self-cleavage of 1.32.
Work on UACGUAGGUGGUUCUCCCCUGAUAGUGCUAAGGGGGCCUGGAAGUUUGGACUGGGCAGAGCUCAACACAGCGUGGCAAAGUGGCUGUGGCUAGACUGCCUCUCUGGAUUCCUCGUCACUCAGCAGGGCAUCUCUGAGAGAGAUGCC yielded a self-cleavage of 1.03.
For UACGUAGGUGGUUUUCCCCUGAUUGUGCUAAGGGGGCCUGGAAGUUUGGACUGGGCAGAGCUCAACACAGCGUGGCAAAGUGGCUGUGGCUAGACUGCCUCUCUGGAUUCCUCGUCACUCAGCAGGGCAUCACUGAGAGAAAUGCC, the self-cleavage was 1.59.
Work on UACGUAGGUGGUUUUCCCCUGAUAGUGCUAAGGGGGCCUGGAAGUUUGGACUGGGCAGAGUUCUACACAGCGUGGCAAAGUGGCUGUGGCUAGACUGCCUCUCUGGAUUCCUCGUCACUCAGCAGGGCAUCUCUGAGAGAAAUGCC yielded a self-cleavage of 0.06.
In the case of UACGUAGGUGGUUUUCCCCUGACAGUGCUAAGGGGGCCUGGAAGUUUGGACUGGGCAGAGCUCGACACAGCGUGGCAAAGUGGCUGUGGCUAGACUGCCUCUCUGGAUUCCUCGUCACUCAGCAGGGCAUCUCUGAGAGAAAUGCC, the self-cleavage is reported as 0.35.
UACGUAGGUGGUUUUCCCCUGAUAGUGCUAAGGGGGCCUGGAAGUUUGGACUGGGCAGAGCUCAACACAGCGUGGCAACGUGGCUGUGACUAGACUGCCUCUCUGGAUUCCUCGUCACUCAGCAGGGCAUCUCUGAGAGAAAUGCC showed a self-cleavage of 0.09.
UACGUAGGUGGUUUUCCCCUGAUAGUGCUAAGGGGGCCUGGAAGUUUGGACCGGGCGGAGCUCAACACAGCGUGGCAAAGUGGCUGUGGCUAGACUGCCUCUCUGGAUUCCUCGUCACUCAGCAGGGCAUCUCUGAGAGAAAUGCC gave a self-cleavage of 0.4.
UACGUAGGUGGUUUUCCCCUGAUAGUGCUAAGGGGGCCCGGAAGUUUGGACUGGGCAGAGCUCAACACAGCGUGGCAAAGUGGCUGUGGCUAGACUGCCUCUCUGGAUUCCUCGUCACUCAGCAGGGCAUCUCUGAGAGAAACGCC gave a self-cleavage of 1.33.
Work on UACGUAGGUGGUUUUCCCCUGAUAGUGCUAAGGGGGCCUGGAAGUUUGGACUGGGCGGAGCUCAACACAGCGUGGCAAAGUGGCUGUGGCUAGACUGCCUCUCUGGAUUCCUCGUCACUCAGCAGGGCAUCGCUGAGAGAAAUGCC yielded a self-cleavage of 0.62.
In the case of UACGUAGGUGGUUUUCCCCUGAUAGUGCUAAGGGGGCCUGGAAGUUUGGACUGGGCAGAGCUCAACACAGCGUGGCAAAGUGGCUGUGGCUAGACUGCCUCCCUGGAUUCCUCGUCACUCAGCAGGGAAUCUCUGAGAGAAAUGCC, the self-cleavage is reported as 0.39.
For UACGUAGGUGGUUUUCCCCUGAUAGUGCUAAAGGGGCCUGGAAGUUUGGACUGGGCAGAGCUCAACACAGCGCGGCAAAGUGGCUGUGGCUAGACUGCCUCUCUGGAUUCCUCGUCACUCAGCAGGGCAUCUCUGAGAGAAAUGCC, the self-cleavage was 1.49.
UACGUAGGUGGUUUUCCCCUGAUAGUGCUAAGGGGGCCUGGAAGUUUGGACUGGGCAGAGCUCAACACAGCGUGGCAUAGUGGCUGUGGCUAGACUGCCUCUCUGGAUUCCUCGUCCCUCAGCAGGGCAUCUCUGAGAGAAAUGCC showed a self-cleavage of 2.72.
For UACGUAGGUGGUUUUCCCCUGAUAGUGCUAAUGGGGCCUGGAAGUUUGGACUGGGCAGAGCUCAACACAGCGUGGCAAAGUGGCUGUGGCUAGACUGCCUCCCUGGAUUCCUCGUCACUCAGCAGGGCAUCUCUGAGAGAAAUGCC, the self-cleavage was 1.13.
In the case of UACGUGGGUGGUUUUCCCCUGAUAGUGCUAAGGGGGCCUGGAAGUUUGGACUGGGCAGAGCUCAACACAGCGUGGCAAAGUGGCUGUGGCUAGACUGCCUCUCUGGAUUCCUCGUCGCUCAGCAGGGCAUCUCUGAGAGAAAUGCC, the self-cleavage is reported as 1.41.
In the case of UACGUAGGUGGUUUUCCCCUGAUAGUGCUAAGGGGGCCUGGAAGUUUGGAGUGGGCAGAGCUCAACACAGCGUGGCAAAGUGGCUGUGGCUAGACUGCCUCUCUGGAUUCCUCGUCACUCAGCAGGGCAUCUCUGAGAGAAAUGCC, the self-cleavage is reported as 1.63.
Work on UACGUAGGUGGUUUUCCCCUGAUAGUGCUAAGGGGGCCUGGAAGUUUGGACUGGGCCGAGCUCAGCACAGCGUGGCAAAGUGGCUGUGGCUAGACUGCCUCUCUGGAUUCCUCGUCACUCAGCAGGGCAUCUCUGAGAGAAAUGCC yielded a self-cleavage of 0.
UACGUAGGUGGUUUUCCCCUGAUAGUGCUAAGGGGGCCUGGAAGUUUGGACUGGGCAGAGCUCAACACAGUGUGGCAAAGUGGCUGUGGCUAGACUGCCUCUCUGGAUUCCUCGUCACUCAGCAGGGCAUCUCUGAGUGAAAUGCC showed a self-cleavage of 1.04.
In the case of UACGUAGGUGGUUUUCCCCUGAUAGUGCUGAGGGGGCCUGGAAGUUUGGACUGGGCAGAGCUCAACGCAGCGUGGCAAAGUGGCUGUGGCUAGACUGCCUCUCUGGAUUCCUCGUCACUCAGCAGGGCAUCUCUGAGAGAAAUGCC, the self-cleavage is reported as 0.51.
UACGUAGGUGGUUUUCCCCUGAUAGUGCUAAGGGGGCCUAGAAGUUUGGACUGGGCAGAGCUCAACACAGCGUGGCAAAGUGGCUGUGGCCAGACUGCCUCUCUGGAUUCCUCGUCACUCAGCAGGGCAUCUCUGAGAGAAAUGCC gave a self-cleavage of 0.21.
UACGUAGGUGGUUUUCCCCUGAUAGUGCUAAGGGGGCCUGGAAAUUUGGACUGGGCAGAGCCCAACACAGCGUGGCAAAGUGGCUGUGGCUAGACUGCCUCUCUGGAUUCCUCGUCACUCAGCAGGGCAUCUCUGAGAGAAAUGCC gave a self-cleavage of 0.02.
In the case of UACGUAGGUGGUUUUCCCCUGAUAGUGCUAAGGGGGCCUGGAAGUUUGGGCUGGGCAGAGCCCAACACAGCGUGGCAAAGUGGCUGUGGCUAGACUGCCUCUCUGGAUUCCUCGUCACUCAGCAGGGCAUCUCUGAGAGAAAUGCC, the self-cleavage is reported as 0.1.
For UACGUAGGUGGUUUUCCCCUGAUAGUGCUAAGGGGGCCUGGAAGUUUGGACUGGGCAAAGCUCAACACAGCGUGGCAAAGUGGCUGUGGCUAGACUGCCUCUCUGGAUUCCUCGACACUCAGCAGGGCAUCUCUGAGAGAAAUGCC, the self-cleavage was 0.1.
For UACGUAGGUGGUUUUCCCCUGAUAGUGCUAAGGGGGCCUGGAAGUUUGGACUGGGCAGAGGUCAACACAGCGUGGCAAAGUGGCUGUGGCUAGACUGCCUCUCUGGAUUCCUCGUCACUCAGCAGGGCAUCUCUGAGAGAAAUGUC, the self-cleavage was 0.03.
In the case of UACGUAGGUGGUUUUCCCCUGAUAGUGCUAAGGGGGCCUGGAAGUGUGGACUGGGCAGAGCUCAACACAGCGUGGCAAAGUGGCUGCGGCUAGACUGCCUCUCUGGAUUCCUCGUCACUCAGCAGGGCAUCUCUGAGAGAAAUGCC, the self-cleavage is reported as 0.
UACGUAGGUGGUUUUCCCCUGAUAGGGCUAAGGGGGCCUGGAAGUUUGGACUGGGCAGAGCUCAACACAGCGUGGCAAAGUGGCUGUGGCUAGACUGCCUCUCUGGAUUCCUCGUCACUCAGCAGGGCAUCUCUGAGAGAAAAGCC gave a self-cleavage of 0.68.
In the case of UACGUAGGUGGUUCUCCCCUGAUUGUGCUAAGGGGGCCUGGAAGUUUGGACUGGGCAGAGCUCAACACAGCGUGGCAAAGUGGCUGUGGCUAGACUGCCUCUCUGGAUUCCUCGUCACUCAGCAGGGCAUCUCUGAGAGAAAUGCC, the self-cleavage is reported as 1.07.
In the case of UACGUAGGUGGUUUUCCCCUGAUAGUGCUAAGGGGGCCUGGAAGUUUGGACUGGGCAGAGCUCAACACAGCGUGGCAAAGAGGCUGUGGCUAGACUGCCUCUCUGGAAUCCUCGUCACUCAGCAGGGCAUCUCUGAGAGAAAUGCC, the self-cleavage is reported as 2.18.
AACGUAGGUGGUUUUCCCCUGAUAGUGCUAAGGGGGCCUGGAAGUUUGGACUGGGCAGAGCUCAACACAGCGUGGCAAAGUGGCUGUGGCUAGACUGCCUCUCUGGAUUCCUCGUCACUCAGCAGGGCAUCUCUGAGGGAAAUGCC gave a self-cleavage of 1.05.
